One test addresses T1, ADI-22523 Fab.
T1 construct: anti-CD3 Fab by papain digestion of the IgG
The experiment in a line: BLI; tip anti-ID IgG, solution ADI-22523 Fab. Here is the method:
(§1) ForteBio affinity measurements were performed generally as previously described (Estep et al., MAbs. 2013 5(2):270-8). Briefly, ForteBio affinity measurements were performed by loading antibody IgG or Fabs on-line onto AHC sensors. Sensors were equilibrated off-line in assay buffer for 30 minutes and then monitored on-line for 60 seconds for baseline establishment. For avid binding measurement, sensors with loaded antibodies were exposed to IgG or Fab solutions for 3 minutes, afterwards they were transferred to assay buffer for 3 minutes for off-rate measurement. Kinetics data were fit using a 1:1 binding model in the data analysis software provided by ForteBio to obtain equilibrium dissociation constant (KD=koff/kₒₙ) values. In each column, tip-immobilized antibodies are listed first and solution antibodies second.
(In BLI a coated tip is dipped into the sample, and binding shifts an interference pattern.)

The target in the next test is T2, ADI-22523 IgG.
T2 construct: anti-CD3 IgG
T2 sequence (VH, as listed by the source limits assumed, chain 1 of 2): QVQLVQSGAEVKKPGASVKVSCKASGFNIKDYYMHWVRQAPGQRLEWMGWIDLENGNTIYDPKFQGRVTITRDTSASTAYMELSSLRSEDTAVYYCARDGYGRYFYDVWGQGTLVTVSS
T2 sequence (VL, as listed by the source limits assumed, chain 2 of 2): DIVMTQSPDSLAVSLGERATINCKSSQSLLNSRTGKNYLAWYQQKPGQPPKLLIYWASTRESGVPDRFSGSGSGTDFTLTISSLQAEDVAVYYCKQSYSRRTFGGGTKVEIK
Nature of the test: BLI; tip anti-ID IgG, solution ADI-22523 IgG. Here is the method:
as §1

Drawing on US20250019439A1 (Adimab, published 2025), this text covers Kd for two molecules.

What is called Kd is the constant that tells how readily two partners part at equilibrium. The low end stands for tighter binding, the high end for weaker binding.

T1 sequence (VH, as listed by the source limits assumed, chain 1 of 2): as the sequence (VH, as listed by the source limits assumed, chain 1 of 2) above
T1 sequence (VL, as listed by the source limits assumed, chain 2 of 2): as the sequence (VL, as listed by the source limits assumed, chain 2 of 2) above

B1: ADI-34139 (antibody, V domains shown)
VH: EVQLLESGGGLVQPGGSLRLSCAASGFTFSSYAMSWVRQAPGKGLEWVSTISGSGGSTYYADSVKGRFTISRDNSKNTLYLQMNSLRAEDTAVYYCARLGGRRGSGSSYYYYYGMDVWGQGTTVTVSS
VL: not shown
notes: anti-ID IgG
Consider B1, for which the dissociation constant Kd with ADI-22523 Fab is 12.5 nM; with ADI-22523 IgG, 2.99 nM.

B2: ADI-34140 (antibody, V domains shown)
VH: EVQLLESGGGLVQPGGSLRLSCAASGFTFSSYAMSWVRQAPGKGLEWVSTISGSGGSTYYADSVKGRFTISRDNSKNTLYLQMNSLRAEDTAVYYCARLGGRRGSGSSYYYYYGMDVWGQGTTVTVSS
VL: not shown
notes: anti-ID IgG
On to B2, for which the Kd with ADI-22523 Fab is 18.9 nM; in the test with ADI-22523 IgG it was 2.9 nM.
